In patent publication US20170066836A1 (NATIONAL UNIVERSITY CORPORATION KOCHI UNIVERSITY, published 2017):
Where a chain is given by its changes, count along the chain named. Blank lines part the entries; values can stand above or below the binder they belong to.

How the values were obtained:
[1] = target: T1, human Glypican-1 forcibly expressed on CT01 chicken T-lymphoblast-like cells (CT01-GPC-1#42) (human, UniProt P35052 24-530); experiment: FACS: clone as primary antibody, FITC-labeled goat anti-mouse IgG as secondary; CT01 cells forcibly expressing human Glypican-1 (CT01-GPC-1#42), Glypican-1-negative CT01 cells as negative cells
T1 sequence: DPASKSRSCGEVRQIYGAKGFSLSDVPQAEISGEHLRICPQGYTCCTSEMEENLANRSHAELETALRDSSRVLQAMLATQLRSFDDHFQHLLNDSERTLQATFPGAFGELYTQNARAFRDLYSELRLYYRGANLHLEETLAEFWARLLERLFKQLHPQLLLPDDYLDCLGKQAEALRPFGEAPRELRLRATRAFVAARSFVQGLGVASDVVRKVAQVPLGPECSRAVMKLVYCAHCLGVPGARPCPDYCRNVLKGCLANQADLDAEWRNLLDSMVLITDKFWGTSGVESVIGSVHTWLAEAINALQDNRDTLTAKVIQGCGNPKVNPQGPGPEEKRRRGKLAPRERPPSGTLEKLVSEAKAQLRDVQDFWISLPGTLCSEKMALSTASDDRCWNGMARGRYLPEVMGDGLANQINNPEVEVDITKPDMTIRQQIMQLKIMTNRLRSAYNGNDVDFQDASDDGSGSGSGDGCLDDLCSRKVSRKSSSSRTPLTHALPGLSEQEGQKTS
Procedure: In carrying out FACS analysis using an antibody, a chicken T-lymphoblast-like cell strain (CT01 cell) was used as a Glypican-1 negative cell and a CT01 cell (CT01-GPC-1#42) forcibly expressing human Glypican-1 was used as a Glypican-1 positive cell. Various clones of the developed antibodies were used as primary antibodies, a FITC-labeled Goat anti-Mouse IgG (H+L chain specific) (Southern Biotech) was used as a secondary antibody, measurement was carried out using FACS Cantoll (BD), and the measurement data was analyzed using Flow Jo (Tree Star). As a result, twenty types of clones were successfully developed as antibodies that can stain Glypican-1 with FACS.

[2] = target: T2, recombinant Glypican-1 (R&D systems 4519-GP-050) (Homo sapiens (Human), UniProt P35052 24-530); experiment: Biacore 3000 (SPR): antibody captured on rabbit anti-mouse IgG on a CM5 chip, recombinant Glypican-1 added at various concentrations; BIAevaluation 4.1
T2 construct: Bought protein
T2 sequence: T1 sequence
Procedure: (§1) Affinity analysis of an anti-Glypican-1 antibody was measured using Biacore 3000. A rabbit anti-mouse IgG polyclonal antibody of the Mouse Antibody Capture Kit was solid-phased to a CM5 sensor tip, various anti-Glypican1 antibody clones were captured, recombinant Glypican-1 (R&D systems 4519-GP-050) was added at various concentrations as a ligand, and binding and dissociation were monitored. The obtained sensorgram was analyzed using BIAevaluation 4.1 software and a KD value was calculated (FIG. 12).

[3] = target: T3, human Glypican-3 expressed on 293 cells (pFLAG-CMV3 hGPC3) (human, UniProt P51654 25-554); experiment: FACS on 293 cells transfected with pFLAG-CMV3 hGPC3
T3 construct: whole, on cells; FLAG-tagged through the vector; also called human GPC-3
T3 sequence (P51654 25-554 limits assumed): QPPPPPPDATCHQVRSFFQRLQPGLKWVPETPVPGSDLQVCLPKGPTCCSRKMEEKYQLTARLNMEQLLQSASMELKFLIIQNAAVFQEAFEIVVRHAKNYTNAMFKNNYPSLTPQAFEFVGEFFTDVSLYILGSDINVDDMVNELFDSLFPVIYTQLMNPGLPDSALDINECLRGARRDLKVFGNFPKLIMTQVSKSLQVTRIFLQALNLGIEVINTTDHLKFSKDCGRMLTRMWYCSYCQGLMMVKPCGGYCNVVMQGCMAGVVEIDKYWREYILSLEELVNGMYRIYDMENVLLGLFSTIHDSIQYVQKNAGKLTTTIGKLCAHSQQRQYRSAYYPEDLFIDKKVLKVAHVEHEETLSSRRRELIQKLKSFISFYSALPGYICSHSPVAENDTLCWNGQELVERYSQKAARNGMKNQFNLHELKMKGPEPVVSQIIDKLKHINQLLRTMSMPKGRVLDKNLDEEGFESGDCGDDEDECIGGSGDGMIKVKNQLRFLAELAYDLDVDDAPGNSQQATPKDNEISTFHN
Procedure: Subsequently, a characteristic of various anti-Glypican-1 antibodies that reacted with Glypican-1, but not with Glypican-3 was determined to prepare a chimeric protein expression vector having an amino acid sequence of the 430th or more position of Glypican-1 substituted with that of Glypican-3 (FIG. 17). Various expression vectors were transfected into the 293 cell and the reactivity with various anti-Glypican-1 antibodies was analyzed by FACS. Consequently, since the reactivity in FACS is not recognized in three clones #17(2-60), #2(1-5), and #10(1-57), it is believed that the epitope region in these clones is present in the 430th to the 530th corresponding to an extracellular region of Glypican-1 (FIG. 18).

[4] = target: T4, mouse Glypican-1 expressed on 293 cells (mouse, UniProt Q9QZF2 24-529); experiment: FACS on 293 cells forcibly expressing mouse GPC1
T4 construct: whole, on cells; also called mouse GPC-1; mouse GPC1
T4 sequence (looked up): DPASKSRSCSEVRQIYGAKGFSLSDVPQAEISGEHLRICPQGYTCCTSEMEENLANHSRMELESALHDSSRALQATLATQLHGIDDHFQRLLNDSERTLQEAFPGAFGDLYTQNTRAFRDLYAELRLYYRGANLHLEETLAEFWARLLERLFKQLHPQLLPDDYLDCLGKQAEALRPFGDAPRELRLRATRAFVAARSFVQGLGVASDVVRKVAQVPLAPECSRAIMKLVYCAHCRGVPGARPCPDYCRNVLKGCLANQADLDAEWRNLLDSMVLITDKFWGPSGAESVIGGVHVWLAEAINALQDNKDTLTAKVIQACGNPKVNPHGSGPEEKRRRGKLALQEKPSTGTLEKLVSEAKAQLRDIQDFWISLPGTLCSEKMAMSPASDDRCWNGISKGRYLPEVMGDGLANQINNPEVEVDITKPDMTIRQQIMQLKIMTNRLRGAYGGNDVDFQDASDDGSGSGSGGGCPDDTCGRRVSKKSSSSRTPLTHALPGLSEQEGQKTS
Procedure: A mouse Glypican-1 expression vector or an empty vector was transfected to the 293 cell using lipofectamine 2000 and the reactivity with various clones of an anti-Glypican-1 antibody was analyzed by FACS.

[5] = target: T2, recombinant Glypican-1 (R&D systems …); experiment: SPR (Biacore 3000): antibody captured by rabbit anti-mouse IgG on a CM5 chip, recombinant Glypican-1 added at various concentrations
Procedure: as §1

B2: anti-GPC-1 antibody 1-50 (antibody, V domains shown)
VH: AVTLDESGGGLQTPGGALSLVCKASGFTFNNNGMSWVRQAPGKGLEWVAGISGAGYSNYAPAVKGRATISRDNGQSTVRLQLNSLRAEDTGTYFCAKVASSCGNECYTSGFIDAWGHGTEVIVST
VL: ALTQPASVSANLGGTVKITCSGGSGSYGWYQQKSPGSAPVTVIFWDNERPSDIPSRFSGSKSGSTHTLTITGVQAEDEAVYFCGSRDRMYDGIFGAGTTLTV
notes: detection was with anti-mouse IgG
binding result [1]: binds

B4: anti-GPC-1 antibody 1-12 (antibody, V domains shown)
VH: AVTLDESGGGLQTPGRALSLVCKASGFTFSRYAMYWVRQAPGKGLEFVAGIGNTGRYTGYGSAVKGRATISRDSGQSTVRLQLNNLRAEDTGNYYCAKSVSPYCCDAADIDAWGHGTEVIVST
VL: ALTQPASVSANPGETVKITCSGGSSGYAYGWYQQKSPGSAPVTLLYSNNNRPSDIPSRFSGSKSGSTATLTITGVQAEDEAVYFCGSVDSSSYAGIFGAGTTLTV
notes: it was captured and detected with anti-mouse IgG and the control was mouse IgG2a; also called #4; clone 1-12
koff [2]: 0.000488 s⁻¹
kon [2]: 187000 M⁻¹ s⁻¹
binding result [3]: no binding
Kd [5]: 2.61 nM
binding result [4]: binds

B5: anti-GPC-1 antibody 1-57 (antibody, V domains shown)
VH: AVTLDESGGGLQTPGGGLSLVCKGSGFTLTDRGMHWVRQAPGKGLEWVAAISSSGRFTLYAPAVTGRATISRDNGQSTVRLQLNNLRAEDTGTYYCARGNAGGWWADGGEIDAWGHGTEVIVST
VL: ALTQPSSVSANPGETVKITCSGGSGSYGWFQQKSPGSAPVTVIYSNNKRPTDIPSRFSGSKSGSTNTLTITGVQADDEAVYFCGSADSSYIGIFGAGTTLTV
notes: detection was with anti-mouse IgG and the control was mouse IgG2a; also called #10; clone 1-57
Kd [2]: 176 nM
koff [2]: 0.00213 s⁻¹
kon [2]: 12100 M⁻¹ s⁻¹
binding result [3]: no binding
binding result [4]: binds

B6: anti-GPC-1 antibody 1-30 (antibody, V domains shown)
VH: AVTLDESGGGLQTPGGGLSLVCKASGFTLNSYDMLWVRQAPGKGLEFVAAISIASGSSYAPAVKGRATISRDNGQSTVRLQLNNLRAEDTGTYYCARGGTGYYYSDATGQIDAWGHGTEVIVST
VL: ALTQPSSVSANPGETVKITCSGGSSGYGYGWYQQKAPGSAPVTVIYSNNQRPSNIPSRFSGSTSGSTSTLTITGVQADDEAVYYCGSTDSSTYDGIFGAGTTLTV
notes: as for B2
binding result [1]: binds

B9: anti-GPC-1 antibody 2-60 (antibody, V domains shown)
VH: AVTLDESGGGLQTPGGALSLVCKASGFTYSSYAMGWVRQAPGKGLEFVASISSDGSDTAYGSAVKGRATISRDNRQSTLRLQLNNLRAEDTGTYYCAKSYRCSWNCWDYAAKIDAWGHGTEVTVS
VL: VALTQPASVSANPGETVKITCSGSGSYTGSYYYGWYQQKSPGSAPVTVIYNNNKRPSDIPSRFSGSTSGSTATLTITGVQAEDEAVYFCGSYDRSSDSGIFGAGTTLTV
notes: detection was with anti-mouse IgG and the control was mouse IgG2a; also called #17; clone 2-60
Kd [2]: 15.2 nM
koff [2]: 0.00105 s⁻¹
kon [2]: 69100 M⁻¹ s⁻¹
binding result [3]: no binding

B10: anti-GPC-1 antibody 1-4 (antibody, V domains shown)
VH: AVTLEESGGGLQTPGGGLSLVCKASGFDFRNNGMAWVRQAPGKGLEWVAGISGTAYAVYGAAVKGRATISRDNGQSTVRLQLNNLRAEDTATYYCAKTVGSCGIDCHTTGFIDGWGHGTEVIVST
VL: ALTQPSSVSANPGETVKITCSGGSYSYGWFQQKSPGSAPVTVIYWDDERPSGIPSRFSGSKSGSTGTLTITGVQAEDEAVYFCGSRDSSYVGIFGAGTTLTV
notes: as for B2
binding result [1]: binds

Now from value to binder:

binding result [1]: binds
B1: anti-GPC-1 antibody 1-10 (antibody, V domains shown)
VH: AVTLDESGGGLQTPGGGLSLVCKASGFTFSGYDMMWVRQAPGKGLEWVGQISSTGSIQKYGAAVKGRATISRDNGQSTMRLQLNDLRAEDTGTYFCAKSAYGYSSSGPEDIDAWGHGTEVIVST
VL: ALTQPASVSANLGGTVKITCSGGSSDAYGWYQQKSPDSAPVTVIYGNNNRPSDIPSRFSGSTSGSTNTLTITGVQADDEAVYFCGSYDGSTDSDGIFGAGTTLTV
notes: as for B2

Kd [2]: 20.9 nM
koff [2]: 0.000951 s⁻¹
kon [2]: 45500 M⁻¹ s⁻¹
binding result [3]: no binding
binding result [4]: binds
B3: anti-GPC-1 antibody 1-5 (antibody, V domains shown)
VH: AVTLDESGGGLQTPGGALSLVCKASGFKFRSYDMYWVRQAPGKGLEYVAGIINTGRETYYGAAVKGRATISRDNGRSTVRLQLNNLRAEDTGTYFCAKGAAWNYAGSIDAWGHGTEVIVST
VL: ALTQPASVSANPGETVKITCSGGSGSYGWYQQKSPGSAPVTVIYGDNKRPTDISSRFSGSTSGSTNTLTITGVQAEDEAVYFCGSRDNTYAGIFGAGTTLTV
notes: detection was with anti-mouse IgG and the control was mouse IgG2a; also called #2; clone 1-5

binding result [3]: no binding
B7: anti-GPC-1 antibody 2-70 (antibody, V domains shown)
VH: AVTLDESGGGLQTPGGALSLVCKASGLSTFSDRGMHWVRQAPGKGLEFVAAISSSGRFTLYGAAVKGRATISRDNGQSTVRLQLNDLRAEDTAIYYCARGTTTGWWADAGEIDAWGHGTEVIVST
VL: ALTQPAFMSANPGETVKITCSGGSYSAYGWFQQKSPGSAPVTLIYNDNIRPSDISSRFSGSKSGSTATLTITGVQADDEAVYFCGNEDRNNTATFGAGTTLTV
notes: detection was with anti-mouse IgG and the control was mouse IgG2a; also called #19; clone 2-70

Kd [2]: 6.19 nM
koff [2]: 0.000848 s⁻¹
kon [2]: 137000 M⁻¹ s⁻¹
B8: anti-GPC-1 antibody 2-63 (antibody, V domains shown)
VH: AVTLDESGGGLQTPGGTLSLVCKASGFDFSSVNMFWVRQAPGKGLEFVAGIDNDATFTLYGSAVKGRASISRDNGQSTVRLQLNNLRAEDTGTYYCAKTLCSTTWGCGAYSAGDIDAWGHGTEVTVST
VL: ALTQPSSVSANPGETVKITCSGGGSSGYGYYGWYQQKSPGSAPVTVIYNNNKRPTDIPSRFSGALSGSTATLTITGVQVEDEAVYYCGSRDNTYVGIFGAGTTLTV
notes: detection was with anti-mouse IgG and the control was mouse IgG2a; also called #18; clone 2-63

binding result [1]: binds
B11: anti-GPC-1 antibody 1-18 (antibody, V domains shown)
VH: AVTLDESGGGLQTPGGALSLVCKASGFTFSSYTMFWVRQAPGKGLEFVAGIDNTGIYTPYGSAVKGRATISRDNGQSTVRLQLNNLRAEDTGTYYCAKYADACTGPWCGSSAYTGSTIDAWGHGTEVTVST
VL: ALTQPSSVSANPGETVKLTCSGGGSYYGWYQQKSPGSAPVTVIYENTERPSNIPSRFSGSTSGSTSTLTIIGVQADDEAVYFCGGYDSSTDAGIFGAGTTLTV
notes: as for B2

binding result [3]: no binding
binding result [4]: binds
B12: anti-GPC-1 antibody 1-28 (antibody, V domains shown)
VH: B11 VH with G16R, G115A, T128I
VL: ALTQPASVSANLGGTVEITCSGGGNDYGWYQQKSPGSAPVTVIYDSINRPSNIPSRFSGSTSGSTATLTITGVQADDEAVYFCGSYDSSYVGIFGAGTTLTV
notes: detection was with anti-mouse IgG and the control was mouse IgG2a; also called #7; clone 1-28
